Test results published in US20240018252A1 (Pfizer, published 2024).

T1: human BCMA (human, UniProt Q02223 1-54)
T1 construct: also called huBCMA; hBCMA
T1 sequence: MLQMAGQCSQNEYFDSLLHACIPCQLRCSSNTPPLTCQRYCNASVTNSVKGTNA


Target: T1, human BCMA
Assay: SPR, immobilised IgG, 37° C

| Binder | T½ [min] |
| --- | --- |
| L3.PY/L1.PH/H3.TAQ (antibody, V domains shown, IgG in the assay) VH: EVQLLESGGGLVQPGGSLRLSCAASGFTFGSYAMTWVRQAPGKGLEWVSAISGSGGNTFYADSVKGRFTISRDNSKNTLYLQMNSLRAEDTAVYYCTRVSPIAAQMDYWGQGTLVTVSS VL: EIVLTQSPGTLSLSPGERATLSCRASQSVSPHYLAWYQQKPGQAPRLLIYGASSRATGIPDRFSGSGSGTDFTLTISRLEPEDFAVYYCQHYPYPPSFTFGQGTKVEIK | 5.43 |
| L3.PY/L3.KF/H3.AE (antibody, V domains shown, IgG in the assay) VH: EVQLLESGGGLVQPGGSLRLSCAASGFTFGSYAMTWVRQAPGKGLEWVSAISGSGGNTFYADSVKGRFTISRDNSKNTLYLQMNSLRAEDTAVYYCARVSPIAAEMDYWGQGTLVTVSS VL: EIVLTQSPGTLSLSPGERATLSCRASQSVSSSYLAWYQQKPGQAPRLLIYGASSRATGIPDRFSGSGSGTDFTLTISRLEPEDFAVYYCKFYPYPPSFTFGQGTKVEIK | 7.44 |
| L3.PY/L3.KF/H3.TAQ (antibody, V domains shown, IgG in the assay) VH: EVQLLESGGGLVQPGGSLRLSCAASGFTFGSYAMTWVRQAPGKGLEWVSAISGSGGNTFYADSVKGRFTISRDNSKNTLYLQMNSLRAEDTAVYYCTRVSPIAAQMDYWGQGTLVTVSS VL: EIVLTQSPGTLSLSPGERATLSCRASQSVSSSYLAWYQQKPGQAPRLLIYGASSRATGIPDRFSGSGSGTDFTLTISRLEPEDFAVYYCKFYPYPPSFTFGQGTKVEIK | 7.12 |
| L3.PY/L3.KF/H2.QL (antibody, V domains shown, IgG in the assay) VH: EVQLLESGGGLVQPGGSLRLSCAASGFTFGSYAMTWVRQAPGKGLEWVSAISGSGGNTFYADQLKGRFTISRDNSKNTLYLQMNSLRAEDTAVYYCARVSPIASGMDYWGQGTLVTVSS VL: EIVLTQSPGTLSLSPGERATLSCRASQSVSSSYLAWYQQKPGQAPRLLIYGASSRATGIPDRFSGSGSGTDFTLTISRLEPEDFAVYYCKFYPYPPSFTFGQGTKVEIK | 9.26 |
| L3.PY/L3.KF/H3.AQ (antibody, V domains shown, IgG in the assay) VH: EVQLLESGGGLVQPGGSLRLSCAASGFTFGSYAMTWVRQAPGKGLEWVSAISGSGGNTFYADSVKGRFTISRDNSKNTLYLQMNSLRAEDTAVYYCARVSPIAAQMDYWGQGTLVTVSS VL: EIVLTQSPGTLSLSPGERATLSCRASQSVSSSYLAWYQQKPGQAPRLLIYGASSRATGIPDRFSGSGSGTDFTLTISRLEPEDFAVYYCKFYPYPPSFTFGQGTKVEIK | 5.09 |
| L3.PY/L3.KF/H2.DY (antibody, V domains shown, IgG in the assay) VH: EVQLLESGGGLVQPGGSLRLSCAASGFTFGSYAMTWVRQAPGKGLEWVSAIDYSGGNTFYADSVKGRFTISRDNSKNTLYLQMNSLRAEDTAVYYCARVSPIASGMDYWGQGTLVTVSS VL: EIVLTQSPGTLSLSPGERATLSCRASQSVSSSYLAWYQQKPGQAPRLLIYGASSRATGIPDRFSGSGSGTDFTLTISRLEPEDFAVYYCKFYPYPPSFTFGQGTKVEIK | 6.35 |
| L3.PY/L3.KF/H2.LT (antibody, V domains shown, IgG in the assay) VH: EVQLLESGGGLVQPGGSLRLSCAASGFTFGSYAMTWVRQAPGKGLEWVSAISLTGGNTFYADSVKGRFTISRDNSKNTLYLQMNSLRAEDTAVYYCARVSPIASGMDYWGQGTLVTVSS VL: EIVLTQSPGTLSLSPGERATLSCRASQSVSSSYLAWYQQKPGQAPRLLIYGASSRATGIPDRFSGSGSGTDFTLTISRLEPEDFAVYYCKFYPYPPSFTFGQGTKVEIK | 6.05 |
| L3.PY/L3.KF/H2.YQ (antibody, V domains shown, IgG in the assay) VH: EVQLLESGGGLVQPGGSLRLSCAASGFTFGSYAMTWVRQAPGKGLEWVSAISYQGGNTFYADSVKGRFTISRDNSKNTLYLQMNSLRAEDTAVYYCARVSPIASGMDYWGQGTLVTVSS VL: EIVLTQSPGTLSLSPGERATLSCRASQSVSSSYLAWYQQKPGQAPRLLIYGASSRATGIPDRFSGSGSGTDFTLTISRLEPEDFAVYYCKFYPYPPSFTFGQGTKVEIK | 5.18 |
